The values that follow come from patent US11015206B2, “Compositions and methods comprising sequences having hydroxyphenylpyruvate dioxygenase (HPPD) activity” (PIONEER HI-BRED INTERNATIONAL, INC., priority 2014, dated 2021).

By kcat is commonly meant the number of substrate molecules converted per active site and unit of time at saturation. The term Km denotes the substrate concentration at which the rate is half of its maximum.

Assay type in all cases: biochemical, Z. mays
In series [1] the test system is 4-hydroxyphenylpyruvate dioxygenase (HPPD). Nature of the series: Insensitivity parameter (ON × OFF) and trait fitness (ON × OFF × kcat/KM or × kcat). The arrangement: key to ON × OFF / Insensitivity, mesotrione, ON × OFF / Insensitivity, tembotrione, ON × OFF / Insensitivity, topramezone, ON × OFF / Insensitivity, sulcotrione, ON × OFF / Insensitivity, isoxaflutole (DKN), ON × OFF: insensitivity = ON rate ratio × OFF rate ratio (surrogate for KD). The essentials: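 Trait fitness combines catalysis and insensitivity as kcat/KM × ON rate ratio × OFF rate ratio. The insensitivity parameter is the product of ON and OFF rate ratios, used in place of KD because the ON rate ratio is inverse.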

Series [2] shares this test system. The series can be described thus: ON rate ratio: HPPD reaction rate with vs without inhibitor in the 70 to 90 second interval. The essentials: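 Indicator of inhibitor on-rate: reaction velocity in the 70 to 90 second window with 4 μM inhibitor divided by that without. Reactions contained 100 μM HPP and 60 or 120 nM HPPD; slower binding gives a larger ratio.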

The test system is the same in series [3]. The series can be described thus: Estimate of kcat from initial rate at saturating hydroxyphenylpyruvate without inhibitor (ON rate ratio assay). In short, it runs like this: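 kcat was estimated from the initial reaction rate with known enzyme level (60 or 120 nM HPPD). Hydroxyphenylpyruvate was at a saturating 100 μM, with no inhibitor present.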
For series [4] the test system is unchanged. Nature of the series: HPPD activity coupled assay with HGD; substrate saturation kinetic parameters (kcat, KM). Conditions: substrate saturation kinetic analysis. In short, it runs like this: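 Coupled continuous assay: His-tagged HPPD (5 to 240 nM, E. coli-expressed, Ni-NTA-purified) with 50 nM P. aeruginosa HGD in 25 mM Hepes pH 7, 2 mM ascorbate, 10 μM FeSO4; maleylacetoacetate followed at 320 nm. KM and Vmax from Lineweaver-Burke fits over 3.33–100 μM HPP.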

[5] abbreviates: Table 7, tembotrione, combinatorial variants.
Where [6] appears, read: inhibitor diketonitrile form of isoxaflutole (DKN).

B1: P056028-D-03 (protein)
chain: MGPTPTATAAGAAVAAASAAEQAAFRLVGHRNFVRFNPRSDRFQTLAFHHVELWCADAASAAGRFSFALGVPLAARSDLSTGNSAHASLLLRSGSLSLLFTAPYAHGADAATAALPSFSAAAARRFAADHGLAVRAVALRVADAEDAFRASVAAGARPAFGPVDLGRGFRLAEVELYGDVVMRYVSYPDGAAGEPFLPGFEGVASPGAADYGLNRFDHIVGNVPELAPAAAYMAGFTGFHEFAEFTTEDVGTTESGLNSMALANNSENVLLPLNEPVHGTKRRSQIQTFLDHHGGPGVQHIALASDDVLRTLREMRARSAMGGFEFLPPPLSDYYDGVRRCAGDVLTEAQINECQELGVMVDRDDEGVLLQIFTKPVGDRPTFFLEIIQRIGCMEKDEKGQEYQKGGCGGFGKGNFGQLFKSIEDYEKSLEAKQAAAAATAQGS
modifications: Zea mays variant form created by artificial means.
Consider B1, for which, in series [1] (Megatable 3, shuffled variants), the “ON × OFF” value was 0.349 and the “ON × OFF × kcat” value is recorded as 6.83. In series [1] (setting [5]), the “ON × OFF” value is 0.349 and the “ON × OFF × kcat” value amounted to 6.83. In series [1] (setting [6]), the “Insensitivity, isoxaflutole (DKN), ON × OFF” value was determined as 0.31 and the “Insensitivity, isoxaflutole (DKN), Trait fitness” value stood at 6.51. For the same molecule, in series [1] (inhibitor mesotrione), the “Insensitivity, mesotrione, ON × OFF” value amounted to 0.68 and the “Insensitivity, mesotrione, Trait Fitness” value is recorded as 14.5. Besides, in series [1] (inhibitor sulcotrione), the “Insensitivity, sulcotrione, ON × OFF” value came out at 0.84 and the “Insensitivity, sulcotrione, Trait fitness” value was found to be 17.9. In series [1] (inhibitor tembotrione), the “Insensitivity, tembotrione, ON × OFF” value is listed as 0.35 and the “Insensitivity, tembotrione, Trait fitness” value is given as 7.44. Besides, in series [1] (inhibitor topramezone), the “Insensitivity, topramezone, ON × OFF” value was found to be 0.46 and the “Insensitivity, topramezone, Trait Fitness” value is given as 9.88. For the same molecule, the ON rate ratio in series [2] (setting [5]) is on record as 0.770. Also, the “Insensitivity, isoxaflutole (DKN), Rate ratio ON” value in series [2] (setting [6]) came to 0.76. The “Insensitivity, mesotrione, Rate ratio ON” value in series [2] (inhibitor mesotrione) is 0.68. Besides, in series [2] (inhibitor sulcotrione), the “Insensitivity, sulcotrione, Rate ratio ON” value came to 0.76. Further, in series [2] (inhibitor tembotrione), the “Insensitivity, tembotrione, Rate ratio ON” value amounted to 0.77. For the same molecule, the “Insensitivity, topramezone, Rate ratio ON” value in series [2] (inhibitor topramezone) stood at 0.80. For the same molecule, the kcat in series [3] (Megatable 3, shuffled variants) was 0.327 s⁻¹. Also, in series [3] (Table 7, combinatorial variants), the turnover number (kcat) was 0.327 s⁻¹. Further, in series [4], the Km came to 2.08 µM and the kcat amounted to 0.737 s⁻¹.
